This assay addresses T1, human cardiac muscle-derived troponin I (human, UniProt P19429 2-210).
T1 construct: Immobilised on a CM5 chip at about 500 RU; also called troponin I derived from human myocardium; human myocardial troponin I
Nature of the assay: SPR (Biacore T100), troponin I immobilised on CM5 chip, as in Example 1.

T1 sequence (P19429 2-210 limits assumed): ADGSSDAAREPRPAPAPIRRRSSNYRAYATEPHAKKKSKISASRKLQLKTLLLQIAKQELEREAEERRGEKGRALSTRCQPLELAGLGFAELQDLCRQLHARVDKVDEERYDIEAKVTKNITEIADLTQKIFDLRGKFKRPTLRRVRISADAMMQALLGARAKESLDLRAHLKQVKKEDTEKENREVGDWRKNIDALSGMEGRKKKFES

B1: wild type scFv antibody fragment (SEQ ID NO: 62) (scFv)
scFv: DIVMTQSPSSLAMSVGQKVTMSCKSSQSLLNSSNQKNYLAWYQQKPGQSPKLLVYFASTRESGVPDRFIGSGSGTDFTLTISSVQAEDLADYFCQQHYSTPLTFGAGTKLELKRGGGGSGGGGSGGGGSEVKLEESGGGLVKPGGTLKLSCAASGFTFSSYAMSWVRQTPEKRLDWVATISSGGSYIFYPDSVKGRFTISRDNARNTLYLQMNSLRSEDTAMYYCARHHNPDKSGFAYWGQGTLVTVSAAAALEHHHHHH
notes: also called wild scFv antibody fragment
B1: the binding result was “binds”.

For the origin of these results see patent publication WO2014192202A1 (dated 2014).
